Assay results from IntAct's records for PubMed 16461343.

B1: Tyrosine-protein phosphatase non-receptor type 22 (Homo sapiens), Q9Y2R2 (parent)
chain: MDQREILQKFLDEAQSKKITKEEFANEFLKLKRQSTKYKADKTYPTTVAEKPKNIKKNRYKDILPYDYSRVELSLITSDEDSSYINANFIKGVYGPKAYIATQGPLSTTLLDFWRMIWEYSVLIIVMACMEYEMGKKKCERYWAEPGEMQLEFGPFSVSCEAEKRKSDYIIRTLKVKFNSETRTIYQFHYKNWPDHDVPSSIDPILELIWDVRCYQEDDSVPICIHCSAGCGRTGVICAIDYTWMLLKDGIIPENFSVFSLIREMRTQRPSLVQTQEQYELVYNAVLELFKRQMDVIRDKHSGTESQAKHCIPEKNHTLQADSYSPNLPKSTTKAAKMMNQQRTKMEIKESSSFDFRTSEISAKEELVLHPAKSSTSFDFLELNYSFDKNADTTMKWQTKAFPIVGEPLQKHQSLDLGSLLFEGCSNSKPVNAAGRYFNSKVPITRTKSTPFELIQQRETKEVDSKENFSYLESQPHDSCFVEMQAQKVMHVSSAELNYSLPYDSKHQIRNASNVKHHDSSALGVYSYIPLVENPYFSSWPPSGTSSKMSLDLPEKQDGTVFPSSLLPTSSTSLFSYYNSHDSLSLNSPTNISSLLNQESAVLATAPRIDDEIPPPLPVRTPESFIVVEEAGEFSPNVPKSLSSAVKVKIGTSLEWGGTSEPKKFDDSVILRPSKSVKLRSPKSELHQDRSSPPPPLPERTLESFFLADEDCMQAQSIETYSTSYPDTMENSTSSKQTLKTPGKSFTRSKSLKILRNMKKSICNSCPPNKPAESVQSNNSSSFLNFGFANRFSKPKGPRNPPPTWNI

Experiments:
lck_human LCK, P06239 = variants of: B1; conditions: with lck_human LCK
Chain of lck_human LCK, P06239 (P06239 whole entry, looked up): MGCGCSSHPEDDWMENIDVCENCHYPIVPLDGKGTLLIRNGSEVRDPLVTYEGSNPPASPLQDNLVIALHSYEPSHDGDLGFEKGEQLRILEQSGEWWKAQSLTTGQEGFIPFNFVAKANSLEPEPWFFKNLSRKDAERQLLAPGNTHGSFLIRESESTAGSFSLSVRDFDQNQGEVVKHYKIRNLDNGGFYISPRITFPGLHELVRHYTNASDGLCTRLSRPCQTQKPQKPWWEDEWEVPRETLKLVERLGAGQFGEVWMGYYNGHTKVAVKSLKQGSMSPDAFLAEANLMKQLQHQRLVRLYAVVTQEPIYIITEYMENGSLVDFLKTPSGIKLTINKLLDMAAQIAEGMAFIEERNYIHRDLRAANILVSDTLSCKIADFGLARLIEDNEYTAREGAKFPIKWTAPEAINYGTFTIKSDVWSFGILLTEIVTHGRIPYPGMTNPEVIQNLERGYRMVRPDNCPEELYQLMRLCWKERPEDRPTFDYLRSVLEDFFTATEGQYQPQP

[1] = variants of: B1; conditions: with zap70_human ZAP70, P43403
Chain of zap70_human ZAP70, P43403 (P43403 whole entry): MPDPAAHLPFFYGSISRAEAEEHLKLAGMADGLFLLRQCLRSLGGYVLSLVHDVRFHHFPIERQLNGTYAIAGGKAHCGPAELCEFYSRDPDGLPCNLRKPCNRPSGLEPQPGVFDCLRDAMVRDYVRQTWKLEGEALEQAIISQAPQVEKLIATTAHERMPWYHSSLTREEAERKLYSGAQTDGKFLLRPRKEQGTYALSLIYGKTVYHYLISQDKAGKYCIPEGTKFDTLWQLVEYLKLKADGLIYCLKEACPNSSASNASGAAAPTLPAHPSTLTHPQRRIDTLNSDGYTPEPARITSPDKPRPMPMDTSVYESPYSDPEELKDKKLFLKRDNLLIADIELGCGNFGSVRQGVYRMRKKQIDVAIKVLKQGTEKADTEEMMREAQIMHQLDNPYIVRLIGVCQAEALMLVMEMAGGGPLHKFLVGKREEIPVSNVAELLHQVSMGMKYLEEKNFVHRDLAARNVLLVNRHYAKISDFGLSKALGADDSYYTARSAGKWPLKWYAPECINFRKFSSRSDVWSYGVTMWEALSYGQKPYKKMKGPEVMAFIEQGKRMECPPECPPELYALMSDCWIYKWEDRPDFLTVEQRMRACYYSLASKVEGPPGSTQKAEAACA

cd3z_human CD247, P20963 = variants of: B1; conditions: with cd3z_human CD247, P20963
Chain of cd3z_human CD247, P20963 (P20963 whole entry): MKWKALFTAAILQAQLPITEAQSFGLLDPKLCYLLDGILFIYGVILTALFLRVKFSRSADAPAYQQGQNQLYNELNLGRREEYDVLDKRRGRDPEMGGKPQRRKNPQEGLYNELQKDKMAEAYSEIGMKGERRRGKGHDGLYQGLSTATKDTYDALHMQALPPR

| effect of a mutation on the interaction (lck_human LCK, P06239) | effect of a mutation on the interaction [1] | effect of a mutation on the interaction (cd3z_human CD247, P20963) | Variant |
| --- | --- | --- | --- |
| increasing interaction | increasing interaction | increasing interaction | D195A |
| increasing interaction | increasing interaction | increasing interaction | C227S |
